Biological target: p75 (Homo sapiens (Human)) (UniProt P08138)
Experiment: ELISA, format not described

UniProt P08138, sequence (P08138 29-250 limits assumed): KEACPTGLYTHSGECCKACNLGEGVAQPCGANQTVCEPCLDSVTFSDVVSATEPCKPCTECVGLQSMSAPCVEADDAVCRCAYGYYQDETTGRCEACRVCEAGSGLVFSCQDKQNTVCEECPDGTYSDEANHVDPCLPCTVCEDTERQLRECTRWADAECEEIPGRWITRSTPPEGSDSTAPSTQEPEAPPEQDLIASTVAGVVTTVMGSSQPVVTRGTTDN

EC50: 300 nM
Substance: Amyloid Precursor Protein (from UniProt P05067 18-286) (ligand)

Reference: patent publication US20110110942A1
